A short description of this data set: label from the status in PepcDB records.
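Note: failed if final PepcDB status was selected cloned or expressed and not failed if soluble or beyond.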

In the case of “MAQNEGVSFSECVAAAKLIRSSNGPGWRQAWEELARSHVQRAEEARRTGNEPEAQKSWLHAANYFMAAAIESCPEGAEPALGALARSCLHNYLAHLTPQGETVAIPWLEPRSLEGFYLPVGTYSAETGPVVVCIAETRRTKEEILSLVLRSARKRGMTLLCVDLPDEPPSSRAGPETGIPAILDYLIDGRGIDAKRIAVISDGSPSSLVTRGIALDGRIAAAVCDGGLWDLWVARQTEACGAALGMVQGCARRPAVSCPMLVPLLASEGIEPGHARQLLTEHHPGNRDILLKVFGETSSGPWTLNGYDPILVADFVFDWVGQQLKAATGDADCIRRLESRL”, the protein production result is given as “failed”.

For “MAQNKNLNLELSLSQYVEDDPWVLKKKLSDSDLYYSAQLYLPKQEMEHFVLPEMDHDLVRKLGAGVEVKVRDVDSVDDFYTVRLKVRNGQYYLGKGWGLIKNAKVLNTGDHIGLFWDKLTREVKFKHFKSQSITMHREAGTTSTQKNVLQKK”, the protein production result is reported as “failed”.

Consider “MAQPERFGRYRVLRRLGSGSFATVWLGHDDLLDTPVAIKVLAENWAHNLDIHQRFVEEARILRQADSEWLVRVHDIGTLPDDRPYFVMTYADRGSVADRIAQGPLPLDEALRLLTEIGQGVTVLHRHGTIHRDIKPSNVLLQSSPVGERVLVADLGFAKSIDGASGFTASAGTPGYMSPEQSVVGGDIDVRADVYSLGAVAYELVTGKRPPSPPVRVPPSRLRPGVPPALDELIMSALSPNRSDRPPDAATFTSRIREIRMSPDLELATPWWQRYRATWTRLVALVATAVAVLGVAPAASASPHLPMMEIYDASGELHVRVPTPWLRQMQLNGWSPRELGLPGGHEPGLLVATDLDAWSDARQSVSGLFAGLFVSDGQSPDLDRLISSGLCSGQPQRQRFTNAHWDGELWQWVDCSPDSSEGDVFTAAVLQHRGQERTLYLEIRQTEHQPQTVAEILDGLRLIS”, for which the protein production result was “failed”.

For the sequence “MAQTQLPHDAKAGPTKPEVRAVVRSKLALTDDDHFVEVGSCTGAVTIAAARDAGRVTALERKADRLETTRKNLAANGLADAVELRNAEAPAELPADADALFIGGSRNYDAVLDHAAETGVDRIVMNVSRLEVAGAATQAFRDRDILTEVVQFQVSHGYELAGATSFDSENPVYMLVGSASGDTEADR”, the protein production result is “failed”.

Turning to “MAQTQTFRRTCFLLAIFILISVSGIGTASEFRVWPGQSIQDAVDSASPGDIILVESGEFNESIRVNKENLTIESASGNPDDIFIAGDTPISYVFEVVANDVKINFFSITDGRCGIFLNNVENCVINGNKISNQEAGIYLLNSRNNLLTNNMVYSNEDCGLKLLASSENIIYGNYFDNVENARDNRFNVWNNSKGNYWSDYGGTDENGDGIGDTPYAINPEVGSMDYRPLIEYSQEAPILPKALFTSDVTEGYAPLVVRFKDFSEDAASRLWDFGDGNFSSYPNPQHTYLNEGTYVVSLTVSNENGSDSASVTVYVRDASELAGPMLPKAQFIYNTTSGHIPLVIKFVDISENADCVTWYFGDGKTSCCPEPEHTFCCPGSYTVSLAAINENGTSSASIVVNVLPAESVESSEDTENSANTGSGSDKNNACNIVNETDADASEKAGDPELITRSENTDSLGNSIIEYASDTTDKFADAENSINAEATENSESDSNGGGEGTGTARIIHREELEAIKDSVISTASSNILKETERALENETLKVQKNVEDFVDDSLPESVGDSLPEMEQRIAPWIPSFLGLAGVIFIVSVMKRGRRRRQK”, the protein production entry is “failed”.

Take “MAQVFNFSSGPAMLPAEVLKLAQQELCDWHGLGTSVMEISHRGKEFIQVAEEAEQDFRDLLNIPSNYKVLFCHGGGRGQFAGVPLNLLGDKTTADYVDAGYWAASAIKEAKKYCAPQIIDAKITVDGKRAVKPMREWQLSDNAAYLHYCPNETIDGIAIDETPDFGPEVVVTADFSSTILSAPLDVSRYGVIYAGAQKNIGPAGLTLVIVREDLLGKAHESCPSILDYTVLNDNDSMFNTPPTFAWYLSGLVFKWLKAQGGVAAMHKINQQKAELLYGVIDNSDFYRNDVAQANRSRMNVPFQLADNTLDKVFLEESFAAGLHALKGHRVVGGMRASIYNAMPIEGVKALTDFMIDFERRHG”: the protein production entry is recorded as “not failed”.

Turning to “MARAKNVLWIMCDQLRYDYLGCTGHPTLKTPNIDAMAKRGVLFSKAYVQSPICGPSRMSFYTGRYMRSHGSHWNGWPLRVGEPTLGDHLKKIGVRNVLVGKTHMAPDLEGMKALGIPPESMIGVHVAECGFEPYERDDGLHPTGRPRPKYDEYLRKQGFEATNPWEHWANSGAAEDGSLQNGWLLVHADKAARVPEEHSETPYMTRRAMDFISEAETDGKPWCLHLSYIKPHWPYIAPEPYASMYSTDDMIPVIRSERERQNPHPVFGAYMDMRYSRNMARDDAREKVIPTYMGLITQIDDQMGALMKFLEERGLLDTTMIVFTSDHGDYLGDHWMGEKDLFHEQSAKIPLIIIDPSREADATRGTRSDALVEGIDLAPTFVDYFGGKVPGHILEGRSLLPLLRGPTPPDWRKVAFSEYDYAMQDVRLKLNQPIERCRLFMVFDGRWKYIHASGFRPMLYDLETDPEEFLDRGDDPDCAGIIARLQAELFDWALHPNDHITTPREKIAAYADNQLQVKGGVLIGIWDEAELAAIKDGIAQRAKL”, the protein production result is “failed”.

For the sequence “MARDGGVSCLRRSEMMSVGGIGGIESAPLDLDEVHVLAVDDSLVDRIVIERLLRITSCKVTAVDSGWRALEFLGLDNEKASAEFDRLKVDLIITDYCMPGMTGYELLKKIKESSNFREVPVVIMSSENVLTRIDRCLEEGAQDFLLKPVKLADVKRLRSHLTKDVKLSNGNKRKLPEDSSSVNSSLPPPSPPLTISPESSPPLTVSTESSDSSPPLSPVEIFSTSPLSSPIDDEDDDVLTSSSEESPIRRQKMRSPGLD”, the protein production entry is on record as “failed”.

Regarding “MARGLNRVFLIGALATRPDMRYTPAGLAILDLTLAGQDLLLSDNGGEREVSWYHRVRLLGRQAEMWGDLLDQGQLVFVEGRLEYRQWEREGERRSELQIRADFLDPLDDRGKERAEDSRGQPRLRAALNQVFLMGNLTRDPELRYTPQGTAVARLGLAVNERRQGAEERTHFVEVQAWRDLAEWAAELRKGDGLFVIGRLVNDSWTSSSGERRFQTRVEALRLERPTRGPAQAGGSRSREVQTGGVDIDEGLEDFPPEEELPF”, the protein production entry is recorded as “not failed”.

On to “MARIHQLDEHLSNMIAAGEVVERPSGIVKELVENSIDAKAKHIEIQILQGGIDCITIIDDGCGMDAQDATLAFERHATSKIQAVDDLWKISTMGFRGEALPSIASVSQVTLRTNDGIDSSEVIIYYGTLKSARPCGTPKGTMLEVRNLFQKTPARFKHLKSPQYEFSLISDVVQKFAISHPNIGFELSHDGRSVFKTKGNGNLREVLMQIYGRDGAKTAIELHGQDLDYTIRGYALQPQFQRATKYYVLLYINGRMIRNYHLQKAVMDAYAPYMPKDRYPIAVINMEMDAQLVDVNVHPSKWEIRLSKEKQLEKLLYQTIKAALMQDMEVPNIQARKENKKEKIEIQELQFTYPRDQEVKKLHTEVNDSFVHYNGKPKQTITEESKVQVDKVEPQEAPVEAEKQESVDKKQELSESQSSDTQAPIKDQVIEEVSTTKQAETLFKDIVPIQEVVMKAEQEPASESINPSLPQLHVIGQFHNSYILAEGEKGLYIIDQHAAQERYHYEMIQKQILSGVKDTQPLLIPITVETTISAVSRIDDLNALLEQVGIHFEVFGNTTLLCRELPIWLKDTKEEAFLQDMIDLWQKDDEISLDKLRKHTIATMACHSSIRFHRSLTMEEMKQVILDLGKCEQPFHCPHGRPTLICYEDKDLIHDFERG”, for which the protein production entry was “failed”.

Consider “MARIIVKNGYLKGGSEKTSAHLNNLVKYIATRDGVEKIKNGRELWHATKKQQTLIGEILREFPDAKEMFEYEDYLANPNRENASEFITIALEQHLDKIGDREKYLDYIANRPRVEKFESHGLFTAGDAPLVLSQVAEEVAAHTGNVWTPIISLRREDAARLDYDNAAAWKALLSSKAMELAENLKIHPDHLKWYGAFHNESHHPHIHMVCYSTDPREGYLTKQGIRKMKSSLANEIFRQELIPLYGEKTQRRDELKEQSAESLRELIRQIKGGVLVSERMEQLLTHLAERLQTVSGKKQYGYLKPELKNVVDEIVDDLAQDSRVSEAYRMWWETKGRIESIYTETPSEPPPLSHCDDFKPIRNMVIQEALLIGNMTFEEPASVETALPEPENDLEMSLSDIEDEEDQEPIDDSVGRPSSDEASAGKESSDSWWTEEYRQAKQYLCGDEDAGVPQDFRKAHELFMAEADKNNPLALYDLGRMSADGLGCEADADAAYGWYEKALVVLHAAEEAKPWKYTEYRIGKMYAAGLGAEQDYLQASDWLTLSADKKYKYAQYSLGGLYYHGKGVEQDHVTAFALYTRSADQSFPYASFELGKMLRDGIGCAKNQQDSDRRFKEAFLGFVSLEEQSHDDKLQYRLGWMLLNGIGTDKDEARAKEYFEKAASVGNPFACYQLAKFILSDEKAQPQDVEKALGYLRKAVEAENPYAAYFLGKLYEKGQHVPQNTAEAMRLYTLSAEQDNEFAAYRLGKLYLDGDGVLKDVESAIRWLTFAADRKNQFAEYALGVLYFKGEDIPKDVPKALEYLKRSAGQGNQFAQYRLGKIYLMGEDVPKDIQTALQFLTAAAEQGNQYAQYTLGKLYLIGKDVPKDKETAVRWFTLSAAQGNIYAQFFLDHIDNFKDPSVLLAGTRLLHHMSRIFADNAPPLKLPGQRTDRKLLRKLREKKQAQGHARDDHEQTMSL”, for which the protein production entry was “failed”.

“MARKKAMKVLRKQKKRENMQRFTQKQNIGRACLTAKEFRLLQRMSHSSKALRNVGLYTMKQSYLNHNRMATVKEVDTAMQNDMNYSGIQSNSVQAIRRSLFTEVKSFFKALEQWKKNPEKFTGRPKFPNYSRSTDKRIIEIYQVPKVDENGYWIIPMNVAFRKKFGSIQIRMPKNLRNKKISYIEIVPKQKGRFFEVHYTYEMHVSQMKKPSTTTSNALSCDLGVDRLVSCVTHTGDAFLIDGKKLKSINQYFNKMICNLQQKNMDNGISKRIVTNKMAALWHKRERQINGYIAQTVGLLFKKVKEFDIDTIVIGYNAGWKQNSHMGKKNNQKFVQIPFQKLMAAIENKCIKEGIRFFKQEESYTSKASFLDKDPVPVWSKNDRTQYRFSGKRITRGLYQSKAGTCIHADINGAMNILKKSGVVELDDNLKVKTPILLEVQKRKAIASRIA”: the protein production result is “failed”.

In the case of “MARLSLVPGRGGLVTEWTVQGQPILYFDRERFQDPSLSVRGGIPILFPICGNLPQDQFNHAGKSYRLKQHGFARDLPWEVIGQQTQDNARLDLRLSHNDATLEAFPFAFELVFSYQLQGHSLRIEQRIANLGDQRMPFSLGFHPYFFCREKLGITLAIPANDYLDQKTGDCHGYDGQLNLTSPELDLAFTQISQPRAHFIDPDRNLKIEVSFSELYQTLVLWTVAGKDYLCLEPLEHHHHHH”, the protein production entry is “failed”.

In the case of “MARRKRRNFSKQASEILNEYFYSHLSNPYPSEEAKEELARKCGITVAQVSNWFGNKRIRYKKNIGKAQEEANLYAAKKAAGASP”, the protein production entry is “not failed”.

In the case of “MARTITFDIPSQYKLVDLIGEGAYGTVCSAIHKPSGIKVAIKKIQPFSKKLFVTRTIREIKLLRYFHEHENIISILDKVRPVSIDKLNAVYLVEELMETDLQKVINNQNSGFSTLSDDHVQYFTYQILRALKSIHSAQVIHRDIKPSNLLLNSNCDLKVCDFGLARCLASSSDSRETLVGFMTEYVATRWYRAPEIMLTFQEYTTAMDIWSCGCILAEMVSGKPLFPGRDYHHQLWLILEVLGTPSFEDFNQIKSKRAKEYIANLPMRPPLPWETVWSKTDLNPDMIDLLDKMLQFNPDKRISAAEALRHPYLAMYHDPSDEPEYPPLNLDDEFWKLDNKIMRPEEEEEVPIEMLKDMLYDELMKTME”, the protein production entry is reported as “failed”.

Consider “MARTRSADYENIRDTIIERAAAMFARQGYSETSIGDIARACECSKSRLYHYFDSKEAVLRDMLTTHVDSLLERCRQVLYGSNEPKTRFLQIVKLFLEIYATSRDRHVVMLTCLDALPEDQRKALIAKQRELIAYVRDALLQLRPDMAANRTLAHVDTMLFFGMINWTYTWYKADGSVSPDALAERTVQLFLDGYLNLLSA”, for which the protein production entry was “not failed”.
